Measurements published in the supplement of paper PMC12042874.
± gives the uncertainty stated by the source.

Experiment: amyloid nucleation score (Sup35N fusion, yeast selection) (log enrichment); library NNK2; higher = more nucleation; inactive = no reads after selection
Outline: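 After 24 hours of induction with 100 μM copper sulfate, psi-negative yeast expressing peptides of 20 random codons fused to Sup35N were grown for 7 days at 30°C on medium lacking adenine and uracil. Input and output plasmid inserts were sequenced with Illumina, and sequences with under 100 input reads were discarded. Scores for nucleation are the DiMSum log enrichment of output over input reads, centred on the mode score of non-aggregating sequences.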

Substance	amyloid nucleation score
SLTMYGSIEWLNNVSAILRH	0.541 ± 0.66
LMNLVVG	-0.701 ± 0.44
RHRKMS	-0.496 ± 0.23
DHITVVAIKKEHLVEIIYVY	-0.904 ± 0.35
QNHVRYQGRLPGSCLGCKYR	-0.488 ± 1
LDYFNYCSSLGFHMVSVVYV	inactive
LVNNGINPPFGPSSLSRGMK	-0.31 ± 0.4
SGVWSSKSLYGKRGNSWIVV	0.053 ± 0.23
DFSLGLWRVTDIDYVSNVSL	0.151 ± 0.8
RSCPFAFGEGG	0.782 ± 0.55
ISHLRVLEQSLLAEWADNFP	2.08 ± 0.097
GLISDYFSPSCIVYAGVR	inactive
WASLGYTCFGKVRRWAPGTH	0.371 ± 0.28
FIYSHYWWLWLYHTATVIPH	-1.45 ± 0.62
ESTAWAQVIPDNRLCGRNCR	-0.153 ± 1.1
FVIVVFRPLGKWQRLFFCNC	0.811 ± 0.21
CNFVRSYDCHQVKLSI	-1.18 ± 1.1
TCLTGKAVSVDHS	inactive
AERIFSQ	-1.45 ± 0.62
VPLCDVYWA	-0.902 ± 0.61
PGSNALVGLTIRCNVILKGG	4.68 ± 0.086
HHMKGAGPNNLFPGDPSGAR	3.46 ± 0.065
MNLPKFNSYLMDSANARASP	0.58 ± 0.19
LWIYRVAYFGFLNYKFSVFL	-1.09 ± 0.42
YRRYVLTL	0.057 ± 0.76

Substance	amyloid nucleation score
YFMTKETLHC	-1.64 ± 0.54
YSDMSFAVALAVSWVQAGAW	-0.618 ± 0.63
VLSNKFI	inactive
WHDIQALTSMDVGRYLGDAI	-0.696 ± 0.26
GVGVLGVLNYVCWLMQCCGL	0.987 ± 0.22
HQRSDYV	0.383 ± 0.74
FSGFSLRSPTTRGGVCGKTV	0.575 ± 0.47
CKRQYHYLIWRMMEMSPGVL	5.07 ± 0.058
SLTYRYVHVLC	5.86 ± 0.04
IVIGRQCPTWFDVARYR	1.07 ± 0.34
SRKFSFAYFTRFFYVLVLIV	inactive
FWLSYTDLWNNY	inactive
SRMAWYFLLGYHLMMEKVHL	inactive
KGCEIFLVLAMCDKCSGFL	3.69 ± 0.12
CIVCFVFMLKRALLLHFCIA	-0.81 ± 1
FSGSIVIAGGIVSMRDPGLR	-0.596 ± 0.79
SNLMISTCEQMGRCVGDDAV	-0.067 ± 0.36
MYDCGVLFIDIRVKVGHVLE	0.167 ± 0.56
ENLPGWLLVKMVQYY	0.276 ± 0.54
FSLCANCNIMMPRSFLSYT	5.24 ± 0.078
DSYMKRLWCRAARDRTESVW	0.159 ± 0.46
YQTYF	-1.08 ± 0.41
HSLFRLLRTSVHAEKSWSNS	2.88 ± 0.063
TGENI	inactive
WISIRSTNRRKLRHRSYATV	0.56 ± 0.56

Substance	amyloid nucleation score
QRYCRA	0.94 ± 0.23
DRIAETSRYKRSENSLSLV	0.099 ± 0.53
TYCHYVADFLPLFRFRISGG	3.1 ± 0.065
CHYKMHSLHTARFEFFVMLF	-0.413 ± 0.41
DSGVAHCANPCRPYREPVQS	1.09 ± 0.37
LCRKRYVRSHTTSWQTGGAF	0.888 ± 0.48
HCSQNYMVTRKIFSLWIPYV	inactive
ALFRPEYRFM	2.64 ± 0.13
GRRVPGWNQSYL	-0.274 ± 0.76
RPHTLGHRCSCQSNFFLLPL	0.025 ± 1.1
LSWRFFLSCWN	inactive
LAMMELYVSRETGLWYM	-0.503 ± 0.32
DVFWKPVYARYFFHRVCMRE	inactive
VKNFTPFRHILVITYNITFN	1.9 ± 0.14
TLRIGDFPWISWSEGVWVGG	0.244 ± 0.65
WIIIFSKFV	-0.695 ± 0.79
CVLQNWYSTSTPKSWLRGNV	0.678 ± 0.41
CVAVNLCVAALV	-0.049 ± 0.76
TSKFSLRVFDLFSIYGYGHT	-0.125 ± 0.45
LDWRTQFLCV	1.19 ± 0.61
MDHCTFYIRGMMPRMYGCTK	-0.711 ± 0.44
AYCFVGFALVRCVGANDVRR	1.6 ± 0.22
TFYIYGIHSLA	-0.917 ± 0.34
GLLEAWEDFLGRMHGVGLVC	4.15 ± 0.051
VMNHSQL	3.92 ± 0.051

Substance	amyloid nucleation score
GRFVSVKHYS	inactive
ECNQCWNMGMM	-0.252 ± 0.76
EKMLF	0.528 ± 0.34
ILISIISFTKSCNISISLEW	-0.603 ± 1.1
RIMTFFVMPDSRRRVDHNQV	0.074 ± 1
IIAPSSEL	-0.479 ± 0.63
FDHHRGGNTLMQGDLLVMDF	0.925 ± 0.67
VALFS	-0.029 ± 0.8
QTMMTTRKCSPLRLVLSQRL	-0.161 ± 1.1
NCDVGYLCLEKFNIPRRSVL	-0.805 ± 0.64
DGSERIPCLSNYHMLRLTNS	-0.001 ± 0.32
ARVRVYRWWTLATTWGRVGF	2.85 ± 0.14
VWLEACGFSRIFSLQFLVSV	-0.476 ± 0.76
LATLRLWVTCQRIGISRRKG	7.017 ± 0.037
VYYSGALFQNVLYLLSFMVV	-0.501 ± 1.1
LILNIRTTGCGYFC	8.818 ± 0.049
DHAYYDTSCGIRTPFVMIVR	inactive
KMLSMDNYD	0.043 ± 1
TLTLCTSSLDC	1.1 ± 0.61
TCDWVVLIYPSSGCCRLEWR	0.99 ± 0.36
PRLRAAG	0.758 ± 0.26
LSYRTCYRNMP	0.328 ± 0.46
NLFLLYEAW	-0.155 ± 0.2
LALRRDLFRVVLSNKTTSTR	1.07 ± 0.28
GLRRRMCCRRCWLEGVDFQD	inactive

Substance	amyloid nucleation score
VIQIVNFSDNIMTCLHNHLQ	5.64 ± 0.086
KSCCDGRNYDKIPRVRSSRT	0.206 ± 0.43
IRGSKSFHLCEAK	0.213 ± 0.33
EGRVHTSLLVVCVTHTRKYM	-0.688 ± 0.42
QCWGMERSERSIRFVTRFFR	3.5 ± 0.1
YSEWSSTRPQFRTLNHEWLL	0.498 ± 0.74
TYGCLFDSSIMSFQLSLDNF	-0.28 ± 0.49
IVCDVLNWPYFVAMAF	0.25 ± 0.8
YDEKMRVHDKYKTQPLERGR	4.37 ± 0.1
EGTRIDLVKRRVNLWCI	-0.296 ± 0.76
CQSAASVL	-0.148 ± 0.31
RWCQE	-0.288 ± 0.53
SWHPRKRWNVCERF	0.273 ± 0.49
FSYQSHY	0.466 ± 0.23
PLGSMTNDTTDRNFEVSGRG	-0.106 ± 0.31
TSPNFLSRLQVRYYRIRVSL	-0.026 ± 0.35
VYLYGPQLLSRWWIQLCCQM	2.96 ± 0.15
IYQIGDEQHDFLCPLKVFVN	-0.336 ± 0.76
SQVTISHSNEHMVGACAVYR	-0.456 ± 0.54
CRTLSGCYQDCGAVNGVLRV	1.22 ± 0.3
TFDPMVGLGISLSALCMGRL	-0.104 ± 0.39
GRRYSRTVEFVTF	0.692 ± 0.29
DCQMRDNASVNIIVRFQYVY	5.08 ± 0.082
VRFQELAR	0.343 ± 0.27
CSYFMGLIVILRVKCRYMLK	-1.18 ± 0.32

Substance	amyloid nucleation score
SKFDLYAKFMIRINRLFVLW	-1.59 ± 0.41
MFNYINYYSYHFEFSKCFVR	2.26 ± 0.14
MKFQPETVCYFRGYWLDRQY	-0.251 ± 0.39
WECLGTCDVGSCLTWRIGGR	2.82 ± 0.18
PRIFFYVNLFLRHWPEIKML	-2.08 ± 1.1
LDALGLDTFNMQLV	0.236 ± 0.28
TCAQYKHGTTVDSNLRSTY	-0.515 ± 0.48
QSLVIN	4.58 ± 0.05
IYCIFRTSKLMNGVMVHSRQ	-0.454 ± 0.37
MFYLS	-0.476 ± 0.37
NGSMIKWDRFASCILHAML	inactive
IRYNLGGDQLG	-0.805 ± 0.44
DNSFMSLYLVRIHFTYPVAA	3.69 ± 0.082
HRVWRVAFVQVRSFIY	-0.038 ± 1
TCLAESGVAMSVS	0.151 ± 0.29
HRYSRCIHLVKWVWCVQMIA	1.29 ± 0.32
DNDCHCSWENISYLWGHLRG	inactive
CRASG	0.409 ± 0.25
DVRFVTEFKSYRSCCKQSMF	2.42 ± 0.054
YCTPCLW	0.452 ± 0.66
LLFWLIRETRSLLSIYLVGT	0.198 ± 0.46
DFTVSHI	inactive
HGAVRSLSGGHIDRELVCD	0.566 ± 0.74
YFRYMLW	4.16 ± 0.1
FKRPDSKIVCDVNVKGALKE	inactive

Substance	amyloid nucleation score
ISHYAYQ	0.811 ± 0.57
LPSVDQTATS	-0.481 ± 0.35
GMLSTTALNLLNMVICYYSL	5.447 ± 0.035
CPSFMNSFDASRNIWIVPSG	3.28 ± 0.058
YVGHRTMMKFTIIVIYYMYP	-1.5 ± 1
NMNGF	-0.532 ± 1
SLQSDQSADFREDKGRSKAE	0.898 ± 0.32
MLVLSTGHPRGFWTRVVCCD	0.092 ± 1.1
VIWHWVAGH	5.71 ± 0.087
LSSGIMSGCEGGAWCCH	0.605 ± 0.66
QCMVVQYD	-0.394 ± 0.65
FYAIGFLIGGLHFWDWHIWF	-0.189 ± 0.64
GPCSSGSDSTCQMPCLAWPG	0.74 ± 0.51
RKSYPRIYVHPSWKCVGDRY	0.066 ± 0.41
RNSSYIDFIGRWH	inactive
AVWCDFHSERAMCVVGM	5.249 ± 0.043
LASTVNIEMVSVHRDWCVWM	5.326 ± 0.029
LLGLHELSTS	0.334 ± 0.46
SSTIGVGRSLFLLMFYRDLI	-1.44 ± 1
RCTRSR	3.4 ± 0.12
MGRTMILRSLDQMMVITVGL	-0.598 ± 0.36
TIFHLRDSYINHAKLSSLHG	inactive
NVLDASRNLE	1.14 ± 0.42
